Results reported in PMC5586252, “PP2A-B′ holoenzyme substrate recognition, regulation and role in cytokinesis” (Cell Discovery, 2017).

Test system: GST-B′γ1
Assay: Titration pull-down of Cyk4 / pCyk4 by immobilized GST-B′γ1
Assay type: binding
Conditions: 10 μg immobilized GST-B′γ1
Procedure: Next, we thoroughly examined Cyk4 phosphorylation sites by MS and the effect of each phosphorylation on B′ binding. […] Upon phosphorylation in vitro by Plk1, the interaction can be detected with Cyk4 concentration as low as 0.6 μM and the half maximum binding can be obtained with the concentration of pCyk4 (1–177) between 2.5 and 5 μM (Figure 4d). […] No unphosphorylated CyK4 is detected (Figure 4e, left panel). The most abundant species are 2pCyk4 and 3pCyk4 that correspond to bis- and tris-phosphorylated proteoforms, respectively (Figure 4e, left panel). Further tandem MS with collision-induced dissociation (CID) and electron capture dissociation (ECD) of 4pCyk4 pinpointed the four sites that are phosphorylated, S149, S157, S164 and S170 (Figure 4e, right panel). Phosphorylation at these four sites was previously reported collectively, but not simultaneously, in different studies. […] As 5pCyk4 represents a minor species of the pCyk4 (Figure 4e, left panel), we concluded that the increase of binding affinity between B′ and pCyk4 is largely contributed by phosphorylation at S149. […] These collectively confirmed that pCyk4 interacts with PP2A-B′ holoenzymes via the identified B′-binding motif that is responsive to primarily the Plk1 phosphorylation site at S149.
Approximately 10 μg of GST-tagged B′-binding motifs or GST-pCyk4 was bound to 10 μl of glutathione resin via GST tag. […]

| Molecule | concentration at which interaction with GST-B′γ1 can be detected [µM] |
| --- | --- |
| pCyk4 (1–177): Cyk4 (1–177) phosphorylated in vitro by Plk1 (protein, phosphorylated by Plk1: mono- to pentakis-phosphorylated forms, no unphosphorylated form; sites of the tetrakis form S149, S157, S164 and S170; left off: GST, N-terminal, cleaved, Cyk4 (1–177) phosphorylated in vitro by Plk1) GSMDTMMLNVRNLFEQLVRRVEILSEGNEVQFIQLAKDFEDFRKKWQRTDHELGKYKDLLMKAETERSALDVKLKHARNQVDVEIKRRQRAEADCEKLERQIQLIREMLMCDTSGSIQLSEEQKSALAFLNRGQPSSSNAGNKRLSTIDESGSILSDISFDKTDESLDWDSSLVKTFKL | 0.6 |
| Cyk4 (1–177): Cyk4 construct (residue 1–177) containing the coiled-coil domain and a portion of the disordered region (protein, UniProt Q9H0H5 1-177, looked up, fragment) MDTMMLNVRNLFEQLVRRVEILSEGNEVQFIQLAKDFEDFRKKWQRTDHELGKYKDLLMKAETERSALDVKLKHARNQVDVEIKRRQRAEADCEKLERQIQLIREMLMCDTSGSIQLSEEQKSALAFLNRGQPSSSNAGNKRLSTIDESGSILSDISFDKTDESLDWDSSLVKTFKL | ≥ 20 |
